Experimental data reported in the supplement of paper PMC10567573.

B1: ZNF511 (parent)
chain: AAPFRFVARPVRFPREHQFFEDGD

Variants of: B1
Experiment: protein stability index of a GFP-peptide fusion (GPS, HEK-293T) (PSI 1-6); higher = more stable
Conditions: c terminus: a fixed tail appended
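Also: lentivirally expressed fusions sorted by FACS into six bins by GFP to DsRed ratio, PSI derived from sequencing read proportions per bin multiplied by bin number.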

Protein stability index, by site and new letter:
D24: C 2.29, A 2.23, E 3.01
P14: F 2, R 2.51, A 2.16, T 1.87, L 1.84, N 2.1, K 2.93, W 1.34, C 2.02, M 2.17, Y 1.8, Q 2.15, D 2.26, E 2.45, S 1.88, I 2.33, G 1.76, V 2.22, H 1.69
F19: V 2.11, N 2.52, W 2.04, Y 2.57, G 2.8, H 2.39, I 1.87, P 2.63, M 3.14, Q 2.46, C 2.08, R 2.4, L 2.61, T 2.81, A 2.52, D 2.48, E 2.61, K 2.08, S 2.25
F20: W 1.9, V 2.85, S 2.96, R 2.32, Y 2.6, N 2.56, K 2.46, C 2.95, T 2.5, G 2.59, P 2.75, A 2.2, I 2.27, E 2.52, L 2.96, M 2.49, Q 2.42, D 2.54, H 1.91
R12: V 2.23, I 2.97, W 1.9, N 2.37, A 1.48, M 2.03, Y 1.74, H 2.18, F 1.54, D 1.85, P 2.22, Q 2.44, E 1.97, C 1.62, T 2.62, K 2.29, G 2.1, S 3.73, L 2.13
G23: M 1.91, S 2.49, V 1.9, R 2.24, H 2.18, F 1.61, E 2.25, N 2.36, K 2.53, T 2.5, P 2.69, A 2.29, L 2.56, I 1.51, D 2.77, Q 2.45, Y 2.35, W 2.02, C 1.67
F6: W 3.41, K 4.36, M 4.13, Q 4.94, L 3.47, R 4.03, N 4.55, S 4.26, V 3.89, H 4.18, I 3.38, Y 1.69, P 4.83, T 4.03
E16: Y 1.68, K 2.15, G 2.53, P 2.55, V 2.34, W 1.79, R 2.32, L 2.26, A 3.2, Q 2.18, C 1.93, T 2.18, D 1.98, M 1.57, I 2.03, F 1.82, S 2.1, N 1.75, H 2.25
A8: L 2.15, C 1.96, E 1.98, V 1.59, P 2.27, K 2.31, I 2.77, H 2.58, Q 1.66, G 2.29, D 1.3, T 1.88, F 2.02, S 1.82, M 2.74, N 2.23, W 2.26, Y 2.19
H17: L 2.15, W 1.72, Y 2.11, F 1.73, G 2.29, S 2.2, R 2.29, I 2.59, Q 2.45, C 2.66, V 1.94, D 2.05, K 2.2, M 2.37, A 2.66, E 2.71, N 2.71, T 2.35, P 1.92
P10: V 2.06, C 2.36, Y 2.59, N 1.88, I 4.18, Q 2.08, A 1.96, E 1.81, K 2.77, D 2.07, F 2.44, L 1.75, H 2.14, S 1.5, R 1.8, G 1.87, T 1.29
Q18: W 2.44, I 2.26, P 2.05, M 2.86, V 1.9, Y 1.74, G 1.87, C 1.64, F 1.69, D 1.8, K 2.46, A 2.77, L 2.18, E 1.96, N 2.33, S 2.46, T 1.69, R 2.27, H 1.7
D22: E 1.98, H 2.54, K 1.52, M 1.72, N 2.25, P 2.44, V 2.65, Y 2.16, G 2.34, L 2.01, T 2.29, I 1.64, A 1.94, S 2.29, Q 2, W 2.02, C 2.08
E21: P 2.45, C 1.91, A 1.96, Y 1.92, D 2, F 1.65, N 2.29, L 1.92, V 2.07, H 2.5, K 2.19, S 2.24, G 3.51, R 1.92, I 1.97, Q 2, T 1.64, M 1.76, W 1.69
R9: T 1.83, N 1.38, E 2.21, Q 3.03, F 1.56, H 1.89, G 2.41, A 2.41, I 1.84, Y 1.84, S 2.2, K 1.95, V 2.14, M 1.95, W 1.41, P 3.54, C 1.32, L 1.94
R15: C 2.03, T 2.57, L 3.44, D 1.72, K 2.2, P 2.85, V 1.86, G 1.74, F 2.08, I 1.98, E 2.06, Y 1.71, A 1.94, N 1.62, S 2.48, H 1.84, Q 2.51, M 1.89, W 1.65
V11: H 2.04, W 1.78, L 2.02, E 1.99, R 2, N 1.95, T 1.94, D 2.14, S 2.34, Q 2.38, K 1.75, P 2.03, C 2.02, Y 1.74, M 2.06, A 1.96, G 1.53, I 2.08, F 1.99
F13: R 2.32, Q 2.1, D 2.1, E 2.36, V 3.13, Y 2.29, W 2.33, L 2.49, G 1.74, K 2.17, H 2.66, P 2.74, I 2.48, M 2.72, S 1.86, A 2.25, T 2.37, N 1.95, C 1.8
V7: A 3.9, C 2.65, R 3.95, W 3.67, T 3.23, Y 3.78, L 3.64, S 3.76, E 4.61, M 3.7, K 3.6, H 2.04, N 3.28, G 3.74, Q 3.78, I 2.53, P 4.46, F 3.69, D 3.73
